Here are results for one protein from paper PMC11564776, “Enzyme stabilisation due to incorporation of a fluorinated non-natural amino acid at the protein surface” (Scientific Reports, 2024).

The data set deals with the molecule itself. Put plainly: SEC; Zorbax-GF250 column, 1 mL/min, 200 mM sodium phosphate pH 7.0, column at room temperature; holo-TK samples stored at 4 °C or heated 15 min at 21 °C or 50 °C; homodimer and monomer peaks combined as 'native' because dilution during SEC can cause partial dissociation to monomer. A general note: In gel filtration, larger molecules generally elute earlier.

B1: wild-type E. coli transketolase (enzyme)
chain: SSRKELANAIRALSMDAVQKAKSGHPGAPMGMADIAEVLWRDFLKHNPQNPSWADRDRFVLSNGHGSMLIYSLLHLTGYDLPMEELKNFRQLHSKTPGHPEVGYTAGVETTTGPLGQGIANAVGMAIAEKTLAAQFNRPGHDIVDHYTYAFMGDGCMMEGISHEVCSLAGTLKLGKLIAFYDDNGISIDGHVEGWFTDDTAMRFEAYGWHVIRDIDGHDAASIKRAVEEARAVTDKPSLLMCKTIIGFGSPNKAGTHDSHGAPLGDAEIALTREQLGWKYAPFEIPSEIYAQWDAKEAGQAKESAWNEKFAAYAKAYPQEAAEFTRRMKGEMPSDFDAKAKEFIAKLQANPAKIASRKASQNAIEAFGPLLPEFLGGSADLAPSNLTLWSGSKAINEDAAGNYIHYGVREFGMTAIANGISLHGGFLPYTSTFLMFVEYARNAVRMAALMKQRQVMVYTHDSIGLGEDGPTHQPVEQVASLRVTPNMSTWRPCDQVESAVAWKYGVERQDGPTALILSRQNLAQQERTEEQLANIARGGYVLKDCAGQPELIFIATGSEVELAVAAYEKLTAEGVKARVVSMPSTDAFDKQDAAYRESVLPKAVTARVAVEAGIADYWYKYVGLNGAIVGMTTFGESAPAELLFEEFGFTVDNVVAKAKELL
notes: transketolase (TK) of E. coli, wild-type gene in plasmid pQR791; the introduction gives the domains as residues 1-322 (PP), 323-539 (Pyr) and 540-663 (C-terminal); Used as holo-TK with ThDP and MgCl2; also called WT TK; WT-TK; source: E. coli XL-10-Gold with plasmid pQR791, purified (Ni-NTA)
Consider B1, for which the binding result is on record as “binds”.
